The source of these data is patent publication US20230037682A1 (published 2023).

In experiment [1] the target is CD3 peptide. Nature of the experiment: SPR (Biacore); 25 °C.
Experiment [2] has as its target CD3 peptide. Nature of the experiment: SPR (Biacore); 25 °C. The source holds these as a separate data set. (In general: SPR reads the build-up and loss of mass on a sensor chip optically.)

Read-outs that look alike come from different tables or passages of the source.

B1: CD3_13 (NOV292) (antibody, V domains shown)
VH: QVQLVESGGGVVQPGRSLRLSCAASGFTFSKNGMHWVRQAPGKGLEWVAMIYYDSSKMYYADTVKGRFTISRDNSKNTLYLQMNSLRAEDTAVYYCASFWWDLDFDHWGQGTMVTVSS
VL: DIVMTQTPLSSPVTLGQPASISCRSSQSLVRSDGTTYFNWYQQRPGQPPRLLIYRVSNRFSGVPDRFSGSGAGTDFTLKISRVEAEDVGVYYCLQSSHFPWTFGGGTKVEIKR
As usually defined, the Kd is the free concentration of one partner at which half of the binding sites on the other are occupied at equilibrium, for simple one-to-one binding. Read a high Kd as weaker binding. Turning to B1, in experiment [1], the Kd stood at 4.59 nM.

B2: CD3_12 (NOV123) (antibody, V domains shown)
VH: QVQLVQSGAEVKKPGASVKVSCKASGYTFTSYYIYWVRQAPGQRLEWMGYIYPGHDAIYYSENFKGRVTITADTSASTAYMELSSLRSEDTAVYYCVRPNTMMAPLAYWGQGTLVTVSS
VL: DVVMTQSPLSLPVTLGQPASISCRSSQSLIYSIGNTYLHWYQQRPGQSPRLLIYRVSNRFSGVPDRFSGSGSGTDFTLKISRVEAEDVGVYYCFQSTHLPYTFGQGTKLEIKR
B2 displayed a Kd in experiment [2] of 262 nM.
